The results in this text go back to paper PMC3613695 (The Journal of Cell Biology, 2013).

B1: Kxd1 (BLOC-1 subunit), overexpressed (natural protein, yeast, UniProt P53158 1-218, looked up)
chain: MVTGISEENDDEETFSAVHSSTPSINSQSYAIPITEEMSSSFHDSISTTSNSSGSFDSDGSNVSDVVEQNEMDNESNVDEDLFLDNDIPQSSNLLPTDAQDPGPIFDVSRYIFDSLKQSIDSADFSEALSLQTKTSAVINSKSLELKQYIDEMKSRLTQLQEKFENGEATSKKIKRDLETSRKNIDYLNAALRVDFPIEFNQAREKILERRLNEDHDC
B2: Bli1 (BLOC-1 subunit), overexpressed (natural protein, yeast, UniProt P35727 1-113, looked up)
chain: MGEQNKLYYDVEKLVNSLQESFDLDCAQSVSLFTSKSRSNEAWLEELENKFKLKDDVELDDVENLRAEIDMKLNMLEDKVSYYERLYKELEEFQNEIKIKTVVNNRRQSRTPK
B3: Vab2 with C-terminal TAP tag (natural protein)
chain: MVADLTKGILKWKSRIEFDAVGSSSYYEELKGLPPLASHKKLTQAAIFNSTKYELLQVKKDILSIYEVVSRDIDEERNQMQQIELQLKKSLKKVEHSYKNVLKQRASTNCINGNDRLLANAEKKIGSLNEELACVNDIVSDIVNNLTALNANLPKKAQLLKDDSINVAHYPLLFDFLHKSCPKSIIATSEASIHENASPSPLLEHDELPAESINSFYGENELQSDSLAPLQTHDDNISSCKKILPPKFNTTSGPSIETNFENISADGLTYTKCSLKNSISLT
B4: Cnl1 (BLOC-1 subunit), overexpressed (natural protein, yeast, UniProt Q06333 1-122, looked up)
chain: MQDNSSHSRESASAGDDPLGIDKLTVDYDYLLYKMRDYVQSIQLDTTELCKKQNEVMVNGIIENTIDKNIAKFKELLEKCDTLENHYEMLNQLAIITDTFKERIAEAVNNYNSLKKGASKSK
B5: Bls1 (BLOC-1 subunit), overexpressed (natural protein, yeast, UniProt Q06071 1-122, looked up)
chain: MFLTFSMCVNWIIVKMPNRSEELDRLLDKIINSPHRTEASKTLQEIENNQSYILNVQLKKLLRLHDDSFKNKCVSPINYMLEKYTPYMGHTEALQKEAELVDRDLRILEMTYQLIEKNRNSK

Test [1] deals with B3. Put plainly: SEC. On the technique in general: SEC sorts molecules by how far they enter the pores of the column.
Test [2] deals with B3. Put plainly: affinity purification with mass spectrometry.
Test [3] addresses Snn1 (BLOC-1 subunit), overexpressed (yeast, UniProt P48232 1-102). Put plainly: affinity purification with mass spectrometry.

B1: the binding result in test [1] is listed as “binds”. As to B2, the binding result in test [2] is “binds”. As for B3, the binding result in test [3] is given as “binds”.

As for B4, the binding result in test [2] is recorded as “binds”. As to B5, the binding result in test [2] is reported as “binds”.
